Test results reported in US20200190176A1 (VERITAS THERAPEUTICS, published 2020).
Blank lines part the entries; values can stand above or below the binder they belong to.

Tests used:
recombinant human FGL2 = molecular target: T1, recombinant human FGL2 (human, UniProt Q14314 30-439, limits assumed); assay: SPR, Biacore 3000, 25 C, antibody captured by goat anti-mouse Fc, FGL2 as analyte
T1 construct: also called hFGL2; FGL2/fibroleukin
T1 sequence (looked up): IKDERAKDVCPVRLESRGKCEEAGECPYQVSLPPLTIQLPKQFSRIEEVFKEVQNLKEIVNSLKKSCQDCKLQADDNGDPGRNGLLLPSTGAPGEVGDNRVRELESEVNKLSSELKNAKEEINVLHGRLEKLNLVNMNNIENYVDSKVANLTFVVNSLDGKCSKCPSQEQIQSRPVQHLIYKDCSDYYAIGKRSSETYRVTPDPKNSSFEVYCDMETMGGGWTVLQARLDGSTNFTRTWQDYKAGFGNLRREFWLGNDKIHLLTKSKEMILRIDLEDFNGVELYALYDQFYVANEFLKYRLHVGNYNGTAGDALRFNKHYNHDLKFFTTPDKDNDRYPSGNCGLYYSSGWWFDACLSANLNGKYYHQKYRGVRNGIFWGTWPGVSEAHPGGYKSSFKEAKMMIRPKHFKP
Description: (§1) The response difference (Resp. Diff.) for each experiment was plotted against time (s). Resp. Diff. is the ligand-immobilized flow cell minus the control flow cell. A) Human FGL2. For the full kinetic analysis, SPR was performed using 0.625 nM, 2.5 nM, 5 nM, and 10 nM recombinant human FGL2. B) Mouse FGL2. For this analysis, SPR was performed using 10 nM recombinant mouse FGL2.
(§2) Binding experiments were performed on Biacore 3000 at 25° C. Flow cell 2 was coated with 1,000 RU of the goat anti-mouse Fc capture Ab by direct immobilization using EDC/NHS amine coupling method and the unoccupied sites were blocked with 1M ethanolamine. 9D8 or 3H9 was captured at an RU as indicated. Either recombinant human or mouse FGL2 was flowed over the chip and binding to 9D8 or 3H9 was monitored in real time. From the observed kon and koff, KD was determined.

recombinant mouse FGL2 = molecular target: T2, recombinant mouse FGL2 (mouse, UniProt P12804 27-432, limits assumed); assay: as above
T2 construct: native mouse FGL2 is said to exist as an oligomer; also called murine recombinant FGL2
T2 sequence (looked up): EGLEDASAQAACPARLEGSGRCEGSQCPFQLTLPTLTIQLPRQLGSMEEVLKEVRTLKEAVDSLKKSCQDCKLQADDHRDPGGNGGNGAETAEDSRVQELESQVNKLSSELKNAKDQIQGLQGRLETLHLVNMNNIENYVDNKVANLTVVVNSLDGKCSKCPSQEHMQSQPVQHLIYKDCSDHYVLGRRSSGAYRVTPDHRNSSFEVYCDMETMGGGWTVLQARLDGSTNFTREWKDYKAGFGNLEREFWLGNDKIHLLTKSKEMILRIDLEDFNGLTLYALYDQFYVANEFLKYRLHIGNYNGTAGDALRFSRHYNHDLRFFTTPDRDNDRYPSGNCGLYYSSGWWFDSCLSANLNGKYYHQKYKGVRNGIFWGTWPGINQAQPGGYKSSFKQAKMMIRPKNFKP
Description: as §1, §2

Kd (recombinant human FGL2): 0.857 nM
koff (recombinant human FGL2): 0.0019 s⁻¹
kon (recombinant human FGL2): 2.22e+06 M⁻¹ s⁻¹
Kd (recombinant mouse FGL2): 1.8 nM
koff (recombinant mouse FGL2): 0.00334 s⁻¹
kon (recombinant mouse FGL2): 1.85e+06 M⁻¹ s⁻¹
B1: anti-FGL2 monoclonal antibody 9D8 (antibody, mouse IgG1, kappa, V domains shown)
VH: EVQLQQSGAELVKPGASVQLSCTASGFNIKDTYIHWVKQRPEQGLEWIGRIDPEDGNTKYDPKFQAKATITADTFSNTAYLQLSSLTSEDTAVYYCARSYGNAYWGQGTLVTVSA
VL: DIVLTQSPASLAVSLGQRATISCRASQSVSTSRYTYMHWYQQKPGQPPKLLIKYASNLDSGVPARFSGSGSGTDFTLNIHPVQEEDTATYYCQHSWEIWAFGGGTKLEIKR
notes: Mouse hybridoma antibody purified from ascites; isotype-matched control was IgG1; here built without leader from variable region plus constant region; also called clone 9D8; antibody to FGL2 (9D8)

Kd (recombinant human FGL2): 0.286 nM
koff (recombinant human FGL2): 0.000884 s⁻¹
kon (recombinant human FGL2): 3.09e+06 M⁻¹ s⁻¹
Kd (recombinant mouse FGL2): 0.103 nM
koff (recombinant mouse FGL2): 0.000189 s⁻¹
kon (recombinant mouse FGL2): 1.84e+06 M⁻¹ s⁻¹
B2: anti-FGL2 monoclonal antibody 3H9 (antibody, mouse IgG2b, kappa, V domains shown)
VH: EVQLQQSGPELVKSGASVKISCKTSGYTFTEYTIHWVKQSHGESLEWVGGINPKNGGISYNQKFKGKATLTVDKSSSTAYMELRSLTSEDSAVYFCARWGIGNYVGFPYWGQGTLVTVSA
VL: SIVMTQTPKFLLVSAGDRVTMTCKASLSVNNDVAWYQQKPGQSPKLLISYASSRYTGVPDRFTGSGYGTDFTFTISSVQAEDLAVYFCQQDYSSPLTFGAGTKLELKR
notes: Mouse hybridoma antibody generated in the same manner as 9D8; here built without leader
